Data from patent publication US20230365703A1 (SHANGHAI LYN CREST ENTERPRISE MANAGEMENT, published 2023).

How the values were obtained:
[1] = target: T1, IL12 receptors on H_IL12 Reporter 293 cells (UniProt P42701 24-662; Q99665 24-862, limits assumed); assay: cell-based or functional assay
[2] = target: T1, IL12 receptors on H_IL12 Reporter 293 …; assay: cell-based or functional assay; remark: listed apart in the source
[3] = target: T2, GPC3 on liver cancer cells (HepG2, HuH-7) (UniProt P51654 25-554); assay: flow cytometry on HepG2 cells, Alexa Fluor 488 anti-human IgG; table under the plot prints no unit, unit taken from the axis Con.(nM)
T2 construct: whole, on cells; also called GPC3 antigen

[4] = target: CD47 on CD47-transfected CHO-K1 cells (Homo sapiens (Human), UniProt Q08722 19-323); assay: flow cytometry on CD47-transfected CHO-K1 cells (CD38-/CD47+), anti-human IgG-FITC detection

T1 sequence (Q99665 24-862 limits assumed, chain 2 of 2, other chains not shown): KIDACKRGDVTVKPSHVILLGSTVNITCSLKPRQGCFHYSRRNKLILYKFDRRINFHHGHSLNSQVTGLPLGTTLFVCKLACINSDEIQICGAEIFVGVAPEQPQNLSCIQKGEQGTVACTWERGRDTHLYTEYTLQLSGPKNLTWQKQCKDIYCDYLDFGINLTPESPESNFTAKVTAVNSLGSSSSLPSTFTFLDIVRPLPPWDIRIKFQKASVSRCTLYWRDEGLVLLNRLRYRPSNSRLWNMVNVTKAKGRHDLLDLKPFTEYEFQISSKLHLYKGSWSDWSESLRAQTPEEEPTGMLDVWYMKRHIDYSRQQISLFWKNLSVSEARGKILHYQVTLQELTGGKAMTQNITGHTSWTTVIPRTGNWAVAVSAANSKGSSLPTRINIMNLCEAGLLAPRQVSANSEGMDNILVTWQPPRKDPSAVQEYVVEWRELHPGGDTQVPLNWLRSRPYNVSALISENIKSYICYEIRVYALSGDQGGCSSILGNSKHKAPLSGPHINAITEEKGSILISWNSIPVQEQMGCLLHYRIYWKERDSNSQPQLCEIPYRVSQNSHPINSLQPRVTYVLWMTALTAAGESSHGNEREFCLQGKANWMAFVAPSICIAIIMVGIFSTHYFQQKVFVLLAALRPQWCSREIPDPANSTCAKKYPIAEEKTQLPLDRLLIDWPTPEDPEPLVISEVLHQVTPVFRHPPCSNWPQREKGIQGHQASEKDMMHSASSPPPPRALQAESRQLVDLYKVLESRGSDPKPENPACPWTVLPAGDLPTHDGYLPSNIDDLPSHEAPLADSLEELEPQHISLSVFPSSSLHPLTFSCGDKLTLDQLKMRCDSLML

B1: LCB-018 (bispecific antibody)
heavy: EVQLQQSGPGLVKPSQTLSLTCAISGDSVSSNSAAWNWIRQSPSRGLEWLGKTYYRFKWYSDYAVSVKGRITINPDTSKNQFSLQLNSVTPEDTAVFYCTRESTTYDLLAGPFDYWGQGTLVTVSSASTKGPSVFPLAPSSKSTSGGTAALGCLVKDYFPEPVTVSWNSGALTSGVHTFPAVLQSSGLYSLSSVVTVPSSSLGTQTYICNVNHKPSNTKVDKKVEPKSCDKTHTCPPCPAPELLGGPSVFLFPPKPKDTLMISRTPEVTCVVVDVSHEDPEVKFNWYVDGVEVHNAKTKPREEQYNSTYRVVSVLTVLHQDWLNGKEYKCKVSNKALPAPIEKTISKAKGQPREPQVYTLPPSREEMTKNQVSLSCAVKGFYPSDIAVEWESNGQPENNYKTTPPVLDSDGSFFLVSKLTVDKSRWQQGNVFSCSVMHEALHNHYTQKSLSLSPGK
chain 1: not shown
chain 2: WELKKDVYVVELDWYPDAPGEMVVLTCDTPEEDGITWTLDQSSEVLGSGKTLTIQVKEFGDAGQYTCHKGGEVLSHSLLLLHKKEDGIWSTDILKDQKEPKNKTFLRCEAKNYSGRFTCWWLTTISTDLTFSVKSSRGSSDPQGVTCGAATLSAERVRGDNKEYEYSVECQEDSACPAAEESLPIEVMVDAVHKLKYENYTSSFFIRDIIKPDPPKNLQLKPLKNSRQVEVSWEYPDTWSTPHSYFSLTFCVQVQGKSKREKKDRVFTDKTSATVICRKNASISVRAQDRYYSSSWSEWASVPCS
For B1, the “EC50 on H_IL12 Reporter 293 cells (One-Glo signal; called binding affinity by the filing)” value [1] was 30 nM, the “fold weaker than the IL12A and IL12B complex on H_IL12 Reporter 293 cells” value [1] was ~500 times and the “EC50 (read off the curve), H_IL12 Reporter 293 cells, One-Glo signal, LCB-018 with IL12B after isotype pre-incubation (TIGIT free)” value [2] was ~4 nM. The “EC50 (read off the curve), H_IL12 Reporter 293 cells, One-Glo signal, LCB-018 with IL12B after pre-block of TIGIT with 200 nM Tiragolumab” value [2] was ~10 nM.

B2: Anti-GPC3 monoclonal antibody codrituzumab (antibody, human IgG1, kappa, V domains shown)
VH: QVQLVQSGAEVKKPGASVKVSCKASGYTFTDYEMHWVRQAPGQGLEWMGALDPKTGDTAYSQKFKGRVTLTADKSTSTAYMELSSLTSEDTAVYYCTRFYSYTYWGQGTLVTVSS
VL: DVVMTQSPLSLPVTPGEPASISCRSSQSLVHSNRNTYLHWYLQKPGQSPQLLIYKVSNRFSGVPDRFSGSGSGTDFTLKISRVEAEDVGVYYCSQNTHVPPTFGQGTKLEIKR
notes: also called GC33; anti-GPC3 mAb
Work on B2 yielded an EC50 [3] of 0.529 nM.

B3: Anti-CD38 monoclonal antibody Felzartamab (antibody, human IgG1, lambda, V domains shown)
VH: QVQLVESGGGLVQPGGSLRLSCAASGFTFSSYYMNWVRQAPGKGLEWVSGISGDPSNTYYADSVKGRFTISRDNSKNTLYLQMNSLRAEDTAVYYCARDLPLVYTGFAYWGQGTLVTVSS
VL: DIELTQPPSVSVAPGQTARISCSGDNLRHYYVYWYQQKPGQAPVLVIYGDSKRPSGIPERFSGSNSGNTATLTISGTQAEDEADYYCQTYTGGASLVFGGGTKLTVLG
B3: no binding [4].
